{"source": "paper PMC7496768", "about": "“Understanding Substrate Selectivity of Phoslactomycin Polyketide Synthase by Using Reconstituted in Vitro Systems” (Chembiochem, 2020)", "key": {"[1]": {"system": "T1, CC(C)(COP(=O)(O)OP(=O)(O)OC[C@H]1O[C@@H](n2cnc3c(N)ncnc32)[C@H](O)[C@@H]1OP(=O)(O)O)[C@@H](O)C(=O)NCCC(=O)NCCSC(=O)CC(=O)O", "T1 construct": "KS-AT didomain of PnB second module (Pn PKS module 3), recombinant, purified", "test": "SucC/SucD - pyruvate kinase/lactate dehydrogenase coupled assay of CoA release", "assay_type": "biochemical, Streptomyces platensis", "conditions": "hydrolysis"}, "[2]": {"system": "T1, CC(C)(COP(=O)(O)OP(=O)(O)OC[C@H]1O[C@@H](n2cnc3c(N)ncnc32)[C@H](O)[C@@H]1OP(=O)(O)O)[C@@H](O)C(=O)NCCC(=O)NCCSC(=O)CC(=O)O", "test": "purified protein, by the assay type", "parameters": "SucC/SucD-coupled CoA-SH release assay, NADH absorbance 340 nm, apparent KM for transacylation to ACP", "conditions": "pH 7.4; 30.0 °C", "protocol": "(§1) Acyltransferase steady state kinetic assay. The assay buffer (200 mM Tris, glycerol 5%v/v, 20 mM MgCl2, pH 7.4) was used to set up all other solutions for this assay. Four master mixes (MM1 to MM4) in 4x concentration were prepared. For MM1 containing the KS-AT proteins (KS-AT or KS-ATS->A mutants), the enzymes were adjusted to 2 µM (for transacylation) or to 4 µM (for hydrolysis) with assay buffer additionally containing 1 mM DTT and 0.1 mg/mL BSA. For MM2 highly pure and concentrated ACP were adjusted to 1600 µM concentration with the assay buffer. Substrate acyl-CoA containing MM3 was prepared with the assay buffer in varying substrate concentrations ranging from (4x concentration indicated here) 1 µM to 1 mM. MM4 contained 1.6 mM NADH, 20 mM ATP, 30 mM succinate, 10 mM phosphoenolpyruvate (stock solutions should be resuspended in assay buffer, or Tris 200 mM, pH 7.4). First, these compounds were mixed and assay buffer was added, leaving volume for Pyruvate Kinase/Lactic Dehydrogenase (PK/LDH), SucC and SucD. After mixing of the compounds, the enzymes were added to MM4 like following: 0.06 mM SucC, 0.06 mM SucD and 20% v/v of PK/LDH (Sigma-Aldrich) (40 µL PK/LDH for 200 µL MM4). To measure transacylation 25 µL MM3, 25 µL MM4, 25 µL MM2 were mixed and incubated 30 °C for one minute. The reaction was started using 25 µL MM1. To measure hydrolysis 25 µL MM3, 25 µL MM4, 25 µL assay buffer were mixed, incubated at 30 °C for one minute. The reaction was started with 25 µL MM1. In both cases after starting the reaction, the mixture was immediately transferred into a 1 cm quartz cuvette, preheated to 30 °C and the absorption was monitored at 340 nm with a Cary 60 UV vis (Agilent technologies). The reactions were measured in three to four technical replicates. Simultaneous to 16 Scheme S1: Steady state kinetic assay, relying on purified proteins. KS-AT didomains and standalone ACPs are used. Upon covalent binding of the acyl-residue to the AT, CoA-SH is released. With no ACP acceptor available, the acyl-residue is subsequently hydrolyzed by nucleophilic attack of water and the AT can bind a new acyl-residue. If holo-ACP is available, the acyl-residue is transferred and the AT can bind a new acyl-residue. Free CoA-SH is converted to succinyl-CoA by E. coli SucC/SucD. In this reaction ADP is produced, which can be used by pyruvate kinase/lactic dehydrogenase (PK/LDH) under NADH consumption. For Michaelis Menten plots with data collected with this assay refer to Figure S6. With the SucC/SucD‐based assay we determined kinetic parameters of PnB_KS‐AT1, PnB_KS‐AT2, PnC_KS‐AT and PnD_KS‐AT for hydrolysis and transacylation (Table S3, Figure S7). As negative control AT catalytic knockouts were used. […] These measurements were independently confirmed by mass spectrometric analysis of acylated ACPs, in which we exclusively detected malonyl‐ACP formation (Tables S1 and S4). […] K M between 4 μM to 11 μM. Rates for transacylation were between 10‐ to 35‐ fold higher (app. k cat of 28 min^−1–140 min^−1) at 2.5 to 7.7 fold higher catalytic efficiency (Table S3)."}, "[3]": {"system": "T2, CC(C)(COP(=O)(O)OP(=O)(O)OC[C@H]1O[C@@H](n2cnc3c(N)ncnc32)[C@H](O)[C@@H]1OP(=O)(O)O)[C@@H](O)C(=O)NCCC(=O)NCCSC(=O)CC(=O)O", "T2 construct": "KS-AT didomain of PnB first module (Pn PKS module 2), recombinant, purified", "test": "SucC/SucD - pyruvate kinase/lactate dehydrogenase coupled assay of CoA release", "assay_type": "biochemical, Streptomyces platensis", "conditions": "hydrolysis"}, "[4]": {"system": "T2, CC(C)(COP(=O)(O)OP(=O)(O)OC[C@H]1O[C@@H](n2cnc3c(N)ncnc32)[C@H](O)[C@@H]1OP(=O)(O)O)[C@@H](O)C(=O)NCCC(=O)NCCSC(=O)CC(=O)O", "test": "purified protein, by the assay type", "parameters": "SucC/SucD-coupled CoA-SH release assay, NADH absorbance 340 nm, apparent KM for transacylation to ACP", "conditions": "pH 7.4; 30.0 °C", "protocol": "as §1"}, "[5]": {"system": "T3, C[C@@H](C(=O)O)C(=O)SCCNC(=O)CCNC(=O)[C@H](O)C(C)(C)COP(=O)(O)OP(=O)(O)OC[C@H]1O[C@@H](n2cnc3c(N)ncnc32)[C@H](O)[C@@H]1OP(=O)(O)O", "T3 construct": "ketosynthase-acyltransferase (KS-AT) didomain of PnC, recombinant, purified", "test": "SucC/SucD - pyruvate kinase/lactate dehydrogenase coupled assay of CoA release", "assay_type": "biochemical, Streptomyces platensis", "conditions": "hydrolysis", "source_text": "(§2) SucC/SucD - pyruvate kinase/lactate dehydrogenase coupled assay of CoA release on PnC_KS-AT"}, "[6]": {"system": "T4, CCCC[C@@H](C(=O)O)C(=O)SCCNC(=O)CCNC(=O)[C@H](O)C(C)(C)COP(=O)(O)OP(=O)(O)OC[C@H]1O[C@@H](n2cnc3c(N)ncnc32)[C@H](O)[C@@H]1OP(=O)(O)O", "T4 construct": "ketosynthase-acyltransferase (KS-AT) didomain of PnC, recombinant, purified", "test": "SucC/SucD - pyruvate kinase/lactate dehydrogenase coupled assay of CoA release", "assay_type": "biochemical, Streptomyces platensis", "conditions": "hydrolysis", "source_text": "as §2"}, "[7]": {"system": "T5, CC(C)CC[C@@H](C(=O)O)C(=O)SCCNC(=O)CCNC(=O)[C@H](O)C(C)(C)COP(=O)(O)OP(=O)(O)OC[C@H]1O[C@@H](n2cnc3c(N)ncnc32)[C@H](O)[C@@H]1OP(=O)(O)O", "T5 construct": "ketosynthase-acyltransferase (KS-AT) didomain of PnC, recombinant, purified", "test": "SucC/SucD - pyruvate kinase/lactate dehydrogenase coupled assay of CoA release", "assay_type": "biochemical, Streptomyces platensis", "conditions": "hydrolysis", "source_text": "as §2"}, "[8]": {"system": "T6, CCCCCC[C@@H](C(=O)O)C(=O)SCCNC(=O)CCNC(=O)[C@H](O)C(C)(C)COP(=O)(O)OP(=O)(O)OC[C@H]1O[C@@H](n2cnc3c(N)ncnc32)[C@H](O)[C@@H]1OP(=O)(O)O", "T6 construct": "ketosynthase-acyltransferase (KS-AT) didomain of PnC, recombinant, purified", "test": "SucC/SucD - pyruvate kinase/lactate dehydrogenase coupled assay of CoA release", "assay_type": "biochemical, Streptomyces platensis", "conditions": "hydrolysis", "source_text": "as §2"}, "[9]": {"system": "T7, CC(C)(COP(=O)(O)OP(=O)(O)OC[C@H]1O[C@@H](n2cnc3c(N)ncnc32)[C@H](O)[C@@H]1OP(=O)(O)O)[C@@H](O)C(=O)NCCC(=O)NCCSC(=O)CC(=O)O", "T7 construct": "ketosynthase-acyltransferase (KS-AT) didomain of PnC, recombinant, purified", "test": "SucC/SucD - pyruvate kinase/lactate dehydrogenase coupled assay of CoA release", "assay_type": "biochemical, Streptomyces platensis", "conditions": "hydrolysis", "source_text": "as §2"}, "[10]": {"system": "T8, CC[C@@H](C(=O)O)C(=O)SCCNC(=O)CCNC(=O)[C@H](O)C(C)(C)COP(=O)(O)OP(=O)(O)OC[C@H]1O[C@@H](n2cnc3c(N)ncnc32)[C@H](O)[C@@H]1OP(=O)(O)O", "T8 construct": "ketosynthase-acyltransferase (KS-AT) didomain of PnC, recombinant, purified", "test": "SucC/SucD - pyruvate kinase/lactate dehydrogenase coupled assay of CoA release", "assay_type": "biochemical, Streptomyces platensis", "conditions": "hydrolysis", "source_text": "as §2"}, "[11]": {"system": "T9, CC(C)(COP(=O)(O)OP(=O)(O)OC[C@H]1O[C@@H](n2cnc3c(N)ncnc32)[C@H](O)[C@@H]1OP(=O)(O)O)[C@@H](O)C(=O)NCCC(=O)NCCSC(=O)CC(=O)O", "T9 construct": "KS-AT didomain of PnD, recombinant, purified", "test": "SucC/SucD - pyruvate kinase/lactate dehydrogenase coupled assay of CoA release", "assay_type": "biochemical, Streptomyces platensis", "conditions": "hydrolysis"}, "[12]": {"system": "T9, CC(C)(COP(=O)(O)OP(=O)(O)OC[C@H]1O[C@@H](n2cnc3c(N)ncnc32)[C@H](O)[C@@H]1OP(=O)(O)O)[C@@H](O)C(=O)NCCC(=O)NCCSC(=O)CC(=O)O", "test": "purified protein, by the assay type", "parameters": "SucC/SucD-coupled CoA-SH release assay, NADH absorbance 340 nm, apparent KM for transacylation to ACP", "conditions": "pH 7.4; 30.0 °C", "protocol": "as §1"}}, "data": [{"substance": "PnB_KS-AT2 (Streptomyces platensis)", "values": [{"measurement": "Km", "setting": "[1]", "result": "5.2 ± 0.8", "unit": "µM"}, {"measurement": "kcat", "setting": "[1]", "result": "0.05 ± 0.00233", "unit": "s⁻¹"}, {"measurement": "Km", "setting": "[2]", "result": "16 ± 1.7", "unit": "µM"}, {"measurement": "kcat", "setting": "[2]", "result": "1.23 ± 0.0333", "unit": "s⁻¹"}]}, {"substance": "PnB_KS-AT1 (Streptomyces platensis)", "values": [{"measurement": "Km", "setting": "[3]", "result": "4.3 ± 0.8", "unit": "µM"}, {"measurement": "kcat", "setting": "[3]", "result": "0.067 ± 0.0025", "unit": "s⁻¹"}, {"measurement": "Km", "setting": "[4]", "result": "27 ± 2.6", "unit": "µM"}, {"measurement": "kcat", "setting": "[4]", "result": "2.33 ± 0.0717", "unit": "s⁻¹"}, {"measurement": "kcat/Km", "setting": "[4]", "result": 86700, "unit": "M⁻¹ s⁻¹"}]}, {"substance": "PnC_KS-AT (Streptomyces platensis)", "values": [{"measurement": "Km", "setting": "[5]", "result": "73 ± 33", "unit": "µM"}, {"measurement": "kcat", "setting": "[5]", "result": "0.0233 ± 0.005", "unit": "s⁻¹"}, {"measurement": "kcat/Km", "setting": "[5]", "result": 333, "unit": "M⁻¹ s⁻¹"}, {"measurement": "Km", "setting": "[6]", "result": "6.2 ± 1.4", "unit": "µM"}, {"measurement": "kcat", "setting": "[6]", "result": "0.0117 ± 0.000667", "unit": "s⁻¹"}, {"measurement": "kcat/Km", "setting": "[6]", "result": 1830, "unit": "M⁻¹ s⁻¹"}, {"measurement": "Km", "setting": "[7]", "result": "20 ± 6.7", "unit": "µM"}, {"measurement": "kcat", "setting": "[7]", "result": "0.0133 ± 0.00133", "unit": "s⁻¹"}, {"measurement": "kcat/Km", "setting": "[7]", "result": 667, "unit": "M⁻¹ s⁻¹"}, {"measurement": "Km", "setting": "[8]", "result": "19 ± 15.5", "unit": "µM"}, {"measurement": "kcat", "setting": "[8]", "result": "0.00667 ± 0.00133", "unit": "s⁻¹"}, {"measurement": "kcat/Km", "setting": "[8]", "result": 333, "unit": "M⁻¹ s⁻¹"}, {"measurement": "Km", "setting": "[9]", "result": "53 ± 41", "unit": "µM"}, {"measurement": "kcat", "setting": "[9]", "result": "0.01 ± 0.0025", "unit": "s⁻¹"}, {"measurement": "kcat/Km", "setting": "[9]", "result": 167, "unit": "M⁻¹ s⁻¹"}, {"measurement": "Km", "setting": "[10]", "result": "6 ± 1.8", "unit": "µM"}, {"measurement": "kcat", "setting": "[10]", "result": "0.015 ± 0.001", "unit": "s⁻¹"}, {"measurement": "kcat/Km", "setting": "[10]", "result": 2500, "unit": "M⁻¹ s⁻¹"}]}, {"substance": "PnD_KS-AT (Streptomyces platensis)", "values": [{"measurement": "Km", "setting": "[11]", "result": "11.5 ± 3.3", "unit": "µM"}, {"measurement": "kcat", "setting": "[11]", "result": "0.05 ± 0.0033", "unit": "s⁻¹"}, {"measurement": "Km", "setting": "[12]", "result": "44 ± 7.2", "unit": "µM"}, {"measurement": "kcat", "setting": "[12]", "result": "0.467 ± 0.03", "unit": "s⁻¹"}]}]}
